Experimental data: article PMC11371828 (Nature Communications, 2024)

Assays:
[1] = molecular target: T1, 6xHis-IKKβ(1-669) EE K469E (human, UniProt O14920 1-669, S177E | S181E | K469E); assay: pull-down
T1 sequence (looked up): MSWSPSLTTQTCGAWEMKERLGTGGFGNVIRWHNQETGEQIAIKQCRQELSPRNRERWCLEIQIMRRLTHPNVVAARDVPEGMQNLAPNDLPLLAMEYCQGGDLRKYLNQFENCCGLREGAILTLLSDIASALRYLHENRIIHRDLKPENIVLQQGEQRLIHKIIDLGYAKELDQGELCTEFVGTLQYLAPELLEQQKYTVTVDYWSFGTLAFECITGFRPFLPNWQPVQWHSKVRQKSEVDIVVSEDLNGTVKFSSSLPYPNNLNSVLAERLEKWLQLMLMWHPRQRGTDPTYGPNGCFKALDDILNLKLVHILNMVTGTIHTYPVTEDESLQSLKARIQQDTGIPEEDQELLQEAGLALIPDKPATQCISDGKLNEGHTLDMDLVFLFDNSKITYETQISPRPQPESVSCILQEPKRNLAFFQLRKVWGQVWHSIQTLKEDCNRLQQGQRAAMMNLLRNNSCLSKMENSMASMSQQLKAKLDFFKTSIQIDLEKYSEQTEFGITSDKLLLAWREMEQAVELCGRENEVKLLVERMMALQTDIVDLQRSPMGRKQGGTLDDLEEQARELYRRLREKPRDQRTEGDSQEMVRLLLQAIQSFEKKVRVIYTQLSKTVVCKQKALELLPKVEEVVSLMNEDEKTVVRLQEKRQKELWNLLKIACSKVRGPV

[2] = molecular target: T2, 6xHis-IKKβ(1-669) EE R460E (human, UniProt O14920 1-669, S177E | S181E | R460E); assay: pull-down
T2 sequence (looked up): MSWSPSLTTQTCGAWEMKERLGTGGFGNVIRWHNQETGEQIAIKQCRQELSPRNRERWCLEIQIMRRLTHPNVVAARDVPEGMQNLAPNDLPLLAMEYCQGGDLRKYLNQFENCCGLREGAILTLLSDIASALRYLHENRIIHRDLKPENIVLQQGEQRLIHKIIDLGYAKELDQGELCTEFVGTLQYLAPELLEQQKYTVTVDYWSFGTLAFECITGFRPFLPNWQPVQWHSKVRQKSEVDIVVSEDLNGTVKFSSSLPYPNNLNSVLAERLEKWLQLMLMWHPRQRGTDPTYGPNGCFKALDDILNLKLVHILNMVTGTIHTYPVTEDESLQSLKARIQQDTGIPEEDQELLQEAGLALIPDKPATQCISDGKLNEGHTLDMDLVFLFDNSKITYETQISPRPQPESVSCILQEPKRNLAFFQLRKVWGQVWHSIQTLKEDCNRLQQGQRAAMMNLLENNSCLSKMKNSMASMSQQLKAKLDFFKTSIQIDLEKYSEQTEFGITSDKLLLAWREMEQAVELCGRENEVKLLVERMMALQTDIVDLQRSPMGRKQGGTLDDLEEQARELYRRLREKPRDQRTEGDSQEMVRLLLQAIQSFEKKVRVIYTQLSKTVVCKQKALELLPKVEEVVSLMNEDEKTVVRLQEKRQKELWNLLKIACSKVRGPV

DELPYDDCVFGGQRLTL (peptide, UniProt P25963 301-317, looked up) [MBP-IκBα pep(s)]
binding result [1]: binds
binding result [2]: binds
